These results are taken from publication PMC7291599, “Defining the Threshold IL-2 Signal Required for Induction of Selective Treg Cell Responses Using Engineered IL-2 Muteins” (Frontiers in Immunology, 2020).

T1: recombinant human IL2RB-huFc (human) (UniProt P14784)
T1 sequence (chain, minimally biotinylated): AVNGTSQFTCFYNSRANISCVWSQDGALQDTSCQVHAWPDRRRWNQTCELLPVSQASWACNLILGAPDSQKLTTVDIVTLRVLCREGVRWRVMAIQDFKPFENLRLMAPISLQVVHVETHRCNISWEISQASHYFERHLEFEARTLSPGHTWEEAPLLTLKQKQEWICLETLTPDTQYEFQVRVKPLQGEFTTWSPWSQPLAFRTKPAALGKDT

T2: Recombinant CD25 protein (IL-2R alpha chain) (human, UniProt P01589 22-240)
T2 construct: IL-2 receptor alpha chain (CD25, IL2RA), recombinant, R&D Systems cat #223-2A/CF; source: bought: R&D Systems (cat #223-2A/CF)
T2 sequence (looked up): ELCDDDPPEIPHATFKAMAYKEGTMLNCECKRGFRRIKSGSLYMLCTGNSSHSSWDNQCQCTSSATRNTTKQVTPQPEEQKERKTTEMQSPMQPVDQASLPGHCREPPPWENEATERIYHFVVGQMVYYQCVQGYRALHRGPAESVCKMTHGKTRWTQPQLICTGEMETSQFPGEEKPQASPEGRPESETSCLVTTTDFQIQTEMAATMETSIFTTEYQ

B1: IL-2 mutein D20A H16R E61Q (Fc fusion) (Fc fusion, human, UniProt P60568 21-153, looked up)
chain: APTSSSTKKTQLQLERLLLALQMILNGINNYKNPKLTRMLTFKFYMPKKATELKHLQCLEQELKPLEEVLNLAQSKNFHLRPRDLISNINVIVLELKGSETTFMCEYADETATIVEFLNRWITFCQSIISTLT
notes: human interleukin-2 (IL-2), fused to the Fc of human IgG1 (N297G); H16 is H36 in P60568); Homodimeric Fc fusion, bivalent for IL-2; source: CHO K1, stably integrated, purified from culture media (MabSelect SuRe, desalting, Superdex 200 SEC)
B2: IL-2 mutein V91K D20A M104V (Fc fusion) (Fc fusion, human, UniProt P60568 21-153, looked up)
chain: B1 chain with R16H, Q61E, V91K, M104V
notes: as for B1

Positions count from the first letter of the chain named. Names may count otherwise.

The first assay deals with T1, recombinant human IL2RB-huFc (human).
Test: not given
Conditions: not given
For the molecule “IL-2 mutein D20A (Fc fusion) (from UniProt P60568 21-153)”, the pSTAT5 MFI EC50 in CD25hi Foxp3+ Treg cells, human whole blood assay (AVG EC50, n = 3 donors) turned out to be 1.21 nM.

“IL-2 mutein D20A H16R E61Q (Fc fusion) (from UniProt P60568 21-153)”: the pSTAT5 MFI EC50 in CD25hi Foxp3+ Treg cells, human whole blood assay (AVG EC50, n = 3 donors) came out at 20.7 nM.

In the case of “IL-2 mutein D20A M104T (Fc fusion) (from UniProt P60568 21-153)”, the pSTAT5 MFI EC50 in CD25hi Foxp3+ Treg cells, human whole blood assay (AVG EC50, n = 3 donors) turned out to be 1.67 nM.

As for “IL-2 mutein D20G (Fc fusion) (from UniProt P60568 21-153)”, the pSTAT5 MFI EC50 in CD25hi Foxp3+ Treg cells, human whole blood assay (AVG EC50, n = 3 donors) was found to be 6.24 nM.

As for “IL-2 mutein D20W (Fc fusion) (from UniProt P60568 21-153)”, the pSTAT5 MFI EC50 in CD25hi Foxp3+ Treg cells, human whole blood assay (AVG EC50, n = 3 donors) turned out to be 20.9 nM.

For the molecule “IL-2 mutein H16E (Fc fusion) (from UniProt P60568 21-153)”, the pSTAT5 MFI EC50 in CD25hi Foxp3+ Treg cells, human whole blood assay (AVG EC50, n = 3 donors) amounted to 0.067 nM.

“IL-2 mutein H16E E61Q (Fc fusion) (from UniProt P60568 21-153)”: the pSTAT5 MFI EC50 in CD25hi Foxp3+ Treg cells, human whole blood assay (AVG EC50, n = 3 donors) was 2.34 nM.

“IL-2 mutein H16E M104L (Fc fusion) (from UniProt P60568 21-153)”: the pSTAT5 MFI EC50 in CD25hi Foxp3+ Treg cells, human whole blood assay (AVG EC50, n = 3 donors) came out at 0.062 nM.

For the molecule “IL-2 mutein N88D (Fc fusion) (from UniProt P60568 21-153)”, the pSTAT5 MFI EC50 in CD25hi Foxp3+ Treg cells, human whole blood assay (AVG EC50, n = 3 donors) was 0.418 nM.

“IL-2 mutein N88K (Fc fusion) (from UniProt P60568 21-153)”: the pSTAT5 MFI EC50 in CD25hi Foxp3+ Treg cells, human whole blood assay (AVG EC50, n = 3 donors) stood at 23.3 nM.

Take “IL-2 mutein V91K D20A M104V (Fc fusion) (from UniProt P60568 21-153)”: the pSTAT5 MFI EC50 in CD25hi Foxp3+ Treg cells, human whole blood assay (AVG EC50, n = 3 donors) is 4.76 nM.

As for “IL-2 mutein V91S (Fc fusion) (from UniProt P60568 21-153)”, the pSTAT5 MFI EC50 in CD25hi Foxp3+ Treg cells, human whole blood assay (AVG EC50, n = 3 donors) was 0.089 nM.

A further assay concerns the target T2, Recombinant CD25 protein (IL-2R alpha …). The experiment in a line: SPR; CD25 amine-coupled (EDC/NHS) to a CM5 chip, about 90 RU, Biacore T100; IL-2 Fc fusions as analytes, 3-fold series from 500 to 6.2 nM in PBS + 0.05% Tween-20, 75 uL/min; steady state RU levels fitted globally to a 4-parameter logistic function to derive EC50. The settings on record: both partners purified. A general note: In SPR one partner is held on a chip, and binding of the other changes the refractive index at the surface.
Turning to B1, the EC50 came out at 157 nM.

As for B2, the EC50 is 6 nM.

The term EC50 denotes the concentration that produces a half-maximal response.
